Consider “SARS-CoV-2 full-length spike, WT D614G, expressed on the cell surface (from UniProt P0DTC2) Gamma (P.1)”, for which the ratio to parent with CB6 (class I) was -266 fold.

As for “SARS-CoV-2 full-length spike, WT D614G, expressed on the cell surface (from UniProt P0DTC2) Beta (B.1.351)”, the ratio to parent was -569 fold with BD368-2 (class II), -76.3 fold with CB6 (class I) and -3.2 fold with REGN10933 (class I).

Consider “SARS-CoV-2 full-length spike, WT D614G, expressed on the cell surface (from UniProt P0DTC2) Alpha (B.1.1.7)”, for which the ratio to parent worked out at 1.3 fold with BD368-2 (class II) and 2.7 fold with CB6 (class I).

The values above are taken from publication PMC8710476.
